No end group written: not given here.
Molecular target: IL-17A (agonist in the IL-17RA/IL17RC dimerization assay) (UniProt Q16552 24-155)
Assay: cell-based or functional assay

Chain of IL-17A (agonist in the IL-17RA/IL17RC dimerization assay) (Q16552 24-155 limits assumed): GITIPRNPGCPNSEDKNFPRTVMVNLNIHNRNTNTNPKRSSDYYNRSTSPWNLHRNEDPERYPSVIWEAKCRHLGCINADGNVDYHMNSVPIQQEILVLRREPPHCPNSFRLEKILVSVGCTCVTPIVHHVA

Row | Binder | IC50 in IL-17RA/IL7RC dimerization assay [nM]
1 | Ac-VHVTIPADLWNWVRR-NH2 [peptide of SEQ ID NO: 119] | < 500
2 | Ac-VHVTIPADLWEFVRR-NH2 [peptide of SEQ ID NO: 120] | < 500
3 | Ac-VHVTIPADLWEWFRR-NH2 [peptide of SEQ ID NO: 121] | < 500
4 | Ac-VHVYIPAELWEWVRR-NH2 [peptide of SEQ ID NO: 122] | < 500
5 | Ac-VHVTIPAEWWEWVRR-NH2 [peptide of SEQ ID NO: 123] | < 500
6 | Ac-VHFTFPQDLWEWVRR-NH2 [peptide of SEQ ID NO: 124] | < 500
7 | Ac-VHFTFPQDFWEWVRR-NH2 [peptide of SEQ ID NO: 125] | < 500
8 | Ac-VHFTIPQDLYEWVRR-NH2 [peptide of SEQ ID NO: 126] | < 500
9 | Ac-VHFTFPQDLWNWVRR-NH2 [peptide of SEQ ID NO: 127] | < 500
10 | Ac-VHFTFPQDLWEFVRR-NH2 [peptide of SEQ ID NO: 128] | < 500
11 | Ac-IHVTIPADLYDWINK-NH2 [peptide of SEQ ID NO: 6] | < 400
12 | Ac-VHFTFPQDLWEWFRR-NH2 [peptide of SEQ ID NO: 129] | < 500
13 | Ac-VHFQFPADLWEWVRR-NH2 [peptide of SEQ ID NO: 130] | < 500
14 | Ac-VHFQFPADLWNWVRR-NH2 [peptide of SEQ ID NO: 133] | < 500
15 | Ac-VHFQFPADLWEFVRR-NH2 [peptide of SEQ ID NO: 134] | < 500
16 | Ac-VHFQFPADLWEWFRR-NH2 [peptide of SEQ ID NO: 135] | < 500
17 | Ac-VHFQIPQDWWEWVRR-NH2 [peptide of SEQ ID NO: 137] | < 500
18 | Ac-VHFQFPQDWWNWVRR-NH2 [peptide of SEQ ID NO: 139] | < 500
19 | Ac-VHFQFPQDLWEFVRR-NH2 [peptide of SEQ ID NO: 140] | < 500
20 | Ac-VHFQFPQDWWEWFRR-NH2 [peptide of SEQ ID NO: 141] | < 500
21 | Ac-VHFTIPADFWEWFRR-NH2 [peptide of SEQ ID NO: 142] | < 500
22 | Ac-VHVQIPADFWEWFRR-NH2 [peptide of SEQ ID NO: 143] | < 500

Row | Binder | IC50 in IL-17RA/IL7RC dimerization assay [nM]
23 | Ac-VHVTFPADLWEWFRR-NH2 [peptide of SEQ ID NO: 144] | < 500
24 | Ac-VHVTIPQDFWEWFRR-NH2 [peptide of SEQ ID NO: 145] | < 500
25 | Ac-VHFTIPQDWWEWVRR-NH2 [peptide of SEQ ID NO: 146] | < 500
26 | Ac-VHFTFPQDLYNWVRR-NH2 [peptide of SEQ ID NO: 147] | < 500
27 | Ac-VHFTFPQDLYNFVRR-NH2 [peptide of SEQ ID NO: 148] | < 500
28 | Ac-VHVTIPADLYNFFRR-NH2 [peptide of SEQ ID NO: 149] | < 500
29 | Ac-VHFQFPQDLWEWVRR-NH2 [peptide of SEQ ID NO: 150] | < 500
30 | Ac-VHFTIPQDLYNWRR-NH2 [peptide of SEQ ID NO: 151] | < 500
31 | Ac-VHFTIPADLYNFVRR-NH2 [peptide of SEQ ID NO: 152] | < 500
32 | Ac-VHFQIPQDLYNFFRR-NH2 [peptide of SEQ ID NO: 153] | < 500
33 | Ac-VHFQFPQEWYNWFRR-NH2 [peptide of SEQ ID NO: 154] | < 500
34 | Ac-VRFQFGQEWYNFFRR-NH2 [peptide of SEQ ID NO: 155] | < 500
35 | Ac-VPGAGVPGAGIHVTI-NH2 [peptide of SEQ ID NO: 156] | < 500
36 | Ac-VPGAGVPGAGIHVTIPA-NH2 [peptide of SEQ ID NO: 157] | < 500
37 | {N‑acetylmuramic acid}-IMVTIPADLYEWIEE [BIO-1] | < 1000
38 | Ac-IHVTIPADLWDWIRK-NH2 [peptide of SEQ ID NO: 9] | < 300
39 | IMVTIPADLYEWIEEQ-{N‑acetylglucosamine} [BIO-2] | < 1000
40 | {N‑acetylglucosamine-N‑acetylmuramic acid}-IMVTIPADLYEWIEE [BIO-3] | < 1000
41 | {capric acid}-IMVTIPADLYEWIEE [BIO-4] | < 1000
42 | {ascorbic acid}-IMVTIPADLYEWIEE [BIO-5] | < 1000
43 | Ac-AHVTIPADLWDWINK-NH2 [peptide of SEQ ID NO: 158] | < 10000
44 | Ac-GHVTIPADLWDWINK-NH2 [peptide of SEQ ID NO: 159] | < 10000

Reference: patent US20220112244A1 (DOMPE FARMACEUTICI S P A, published 2022)
